# Reference: US20230025600A1, “TREATMENT OF CANCERS WITH ANTIBODY DRUG CONJUGATES (ADC) THAT BIND TO 191P4D12 PROTEINS” (AGENSYS, INC., priority 2019, published 2023)
# What was measured:
# [1] = EV-201 laboratory abnormalities; assay type: in vivo, human
# Description: The data described in this section reflect exposure to PADCEV from EV-201, a single arm study in patients (n=125) with locally advanced or metastatic urothelial cancer who had received prior treatment with a PD-1 or PD-L1 inhibitor and platinum-based chemotherapy. Patients received PADCEV 1.25 mg/kg on Days 1, 8 and 15 of a 28-day cycle until disease progression or unacceptable toxicity. The median duration of exposure to PADCEV was 4.6 months (range: 0.5-15.6). […]
# [2] = Outcome of adverse reactions under the dose modification schedule; assay type: in vivo, human
# Text: The results based on the dose modification schedule as provided are as follows.
# [3] = system: locally advanced or metastatic urothelial cancer; assay: EV-201 single-arm trial, efficacy (BICR, RECIST v1.1); assay type: in vivo, human
# Description: The efficacy of PADCEV was evaluated in EV-201 (NCT03219333), single-arm, multicenter trial that enrolled 125 patients with locally advanced or metastatic urothelial cancer who received prior treatment with a PD-1 or PD-L1 inhibitor and platinum-based chemotherapy. Patients were excluded if they had active CNS metastases, ongoing sensory or motor neuropathy >Grade 2, or uncontrolled diabetes defined as hemoglobin A1C (HbA1c)≥8% or HbA1c≥7% with associated diabetes symptoms.
# The median age was 69 years (range: 40 to 84 years), 70% were male, and 85% were Caucasian. […] Ninety percent of patients had visceral metastases including 40% with liver metastases. Two-thirds of patients had pure transitional cell carcinoma (TCC) histology; 33% had TCC with other histologic variants. An immunohistochemistry clinical trial assay was used to assess patients with tumor tissue available, and detected Nectin-4 expression in all patients tested (n=120). The median number of prior systemic therapies was 3 (range: 1 to 6). Forty-six percent of patients received prior PD-1 inhibitor, 42% received prior PD-L1 inhibitor, and an additional 13% received both PD-1 and PD-L1 inhibitors. Sixty-six percent of patients received prior cisplatin-based regimens, 26% received prior carboplatin-based regimens, and an additional 8% received both cisplatin and carboplatin-based regimens.
# The major efficacy outcome measures were confirmed objective response rate (ORR) and duration of response (DOR) assessed by blinded independent central review (BICR) using RECIST v1.1.
# [4] = Cardiac electrophysiology (QTc); assay type: in vivo, human; details: at the recommended dose; large = >20 msec
# pregnant rats = assay: Rat embryo-fetal development study; assay type: in vivo
# Text: Additionally, skeletal anomalies (asymmetric, fused, incompletely ossified, and misshapen sternebrae, misshapen cervical arch, and unilateral ossification of the thoracic centra) and decreased fetal weight were observed.
# [5] = Immunogenicity (anti-therapeutic antibody, ATA); assay type: in vivo, human; details: 365 patients tested
# Text: As with all therapeutic proteins, there is a potential for immunogenicity. The detection of antibody formation is highly dependent on the sensitivity and specificity of the assay. Additionally, the observed incidence of antibody (including neutralizing antibody) positivity in an assay may be influenced by several factors including assay methodology, sample handling, timing of sample collection, concomitant medications, and underlying disease. For these reasons, comparison of the incidence of antibodies in the studies described below with the incidence of antibodies in other studies or other enfortumab vedotin products may be misleading.
# A total of 365 patients were tested for immunogenicity to PADCEV; 4 patients (1%) were confirmed to be transiently positive for anti-therapeutic antibody (ATA), and 1 patient (0.3%) was confirmed to be persistently positive for ATA at any post-baseline time point. No impact of ATA on efficacy, safety and pharmacokinetics was observed.
# [6] = EV-201, denominator 121 or 122 patients
# [7] = among patients who experienced hyperglycemia
# [8] = among patients who experienced it, dose modification schedule
substance,measurement,setting,value
enfortumab vedotin-ejfv [PADCEV],"Creatinine increased, Grade 3-4",[1]; [6],2%
same,"Creatinine increased, Grades 2-4",[1]; [6],20%
same,"Glucose increased, Grade 3-4",[1]; [6],8%
same,"Hemoglobin decreased, Grade 3-4",[1]; [6],10%
same,"Hemoglobin decreased, Grades 2-4",[1]; [6],34%
same,"Leukocytes decreased, Grade 3-4",[1]; [6],4%
same,"Leukocytes decreased, Grades 2-4",[1]; [6],14%
same,"Lipase increased, Grade 3-4",[1]; [6],9%
same,"Lipase increased, Grades 2-4",[1]; [6],14%
same,"Lymphocytes decreased, Grade 3-4",[1]; [6],10%
same,"Lymphocytes decreased, Grades 2-4",[1]; [6],32%
same,"Neutrophils decreased, Grade 3-4",[1]; [6],5%
same,"Neutrophils decreased, Grades 2-4",[1]; [6],14%
same,"Phosphate decreased, Grade 3-4",[1]; [6],10%
same,"Phosphate decreased, Grades 2-4",[1]; [6],34%
same,"Sodium decreased, Grade 3-4",[1]; [6],8%
same,"Sodium decreased, Grades 2-4",[1]; [6],8%
same,"Urate increased, Grade 3-4",[1]; [6],7%
same,"Urate increased, Grades 2-4",[1]; [6],7%
same,patients with non-fasting glucose >160-250 mg/dL,"[1]; EV-201, fasting glucose not measured, 23 patients","^†CTCAE Grade 2 is defined as fasting glucose >160-250 mg/dL. Fasting glucose levels were not measured in EV-201. However, 23 (19%) patients had non-fasting glucose >160-250 mg/dL."
same,hyperglycemia: complete resolution,[2]; [7],57%
same,hyperglycemia: some improvement,[2]; [7],14%
same,rash: complete resolution,[2]; [8],73%
same,rash: patients with resolution or improvement,[2]; [8],93%
same,rash: some improvement,[2]; [8],20%
same,peripheral neuropathy: resolution or Grade 1 after the dose modification,[2]; among patients who experienced peripheral neuropathy,76%
same,ongoing rash that was Grade 1,[2]; of those with ongoing rash,75%
same,median time to response,[3]; EV-201,1.84 months
same,Median Duration of Response,"[3]; EV-201, BICR, median follow-up 10.2 months",7.6 months
same,Complete Response Rate (CR),"[3]; EV-201, n = 125, BICR",12%
same,Partial Response Rate (PR),"[3]; EV-201, n = 125, BICR",32%
same,Confirmed ORR,"[3]; EV-201, n = 125, BICR, 1.25 mg/kg Days 1, 8, 15 of 28-day cycle",44%
same,QTc prolongation,[4],no large QTc prolongation
same,findings in pregnant rats dosed during organogenesis,pregnant rats; maternal exposures approximately similar to exposure at recommended human dose of 1.25 mg/kg,"maternal toxicity, embryo-fetal lethality, structural malformations and skeletal anomalies"
same,skeletal anomalies and decreased fetal weight,pregnant rats; rat pilot embryo-fetal development study,observed
same,exposure at 5 mg/kg relative to the recommended human dose,"pregnant rats; rat, 5 mg/kg",approximately 3 times the exposure at the recommended human dose
same,outcome at 2 mg/kg,"pregnant rats; rat, gestation day 6 and 13, 2 mg/kg, approximately similar to exposure at recommended human dose","maternal toxicity, embryo-fetal lethality and structural malformations"
same,outcome at the maternally toxic dose of 5 mg/kg,"pregnant rats; rat, gestation day 6 and 13, 5 mg/kg",complete litter loss in all pregnant rats
same,"impact of ATA on efficacy, safety and pharmacokinetics",[5],No impact
same,patients persistently positive for ATA at any post-baseline time point,[5]; 1 patient,0.3%
same,patients transiently positive for anti-therapeutic antibody (ATA),[5]; 4 patients,1%
